This passage reports response results from paper PMC12630686, “A degron-mimicking molecular glue drives CRBN homo-dimerization and degradation” (Nature Communications, 2025).

To fix the notation:
B1: HaloTag-mouse CRBN (wild type) [mouse] / hCRBN-NanoLuc with a 191-248 aa deletion (Trunc) [human] (parent)
chain 1: MAGEGDQQDAAHNMGNHLPLLPADSEDEDDEIEMEVEDQDSKEARKPNIINFDTSLPTSHTYLGADMEEFHGRTLHDDDSCQVIPVLPEVLMILIPGQTLPLQLSHPQEVSMVRNLIQKDRTFAVLAYSNVQEREAQFGTTAEIYAYREEQEFGIEVVKVKAIGRQRFKVLELRTQSDGIQQAKVQILPECVLPSTMSAVQLESLNKCQVFPSKPISWEDQYSCKWWQKYQKRKFHCANLTSWPRWLYSLYDAETLMDRIKKQLREWDENLKDDSLPENPIDFSYRVAACLPIDDVLRIQLLKIGSAIQRLRCELDIMNKCTSLCCKQCQETEITTKNEIFSLSLCGPMAAYVNPHGYVHETLTVYKASNLNLIGRPSTVHSWFPGYAWTIAQCKICASHIGWKFTATKKDMSPQKFWGLTRSALLPTIPETEDEISPDKVILCL
chain 2: MAGEGDQQDAAHNMGNHLPLLPAESEEEDEMEVEDQDSKEAKKPNIINFDTSLPTSHTYLGADMEEFHGRTLHDDDSCQVIPVLPQVMMILIPGQTLPLQLFHPQEVSMVRNLIQKDRTFAVLAYSNVQEREAQFGTTAEIYAYREEQDFGIEIVKVKAIGRQRFKVLELRTQSDGIQQAKVQILPECVLDAETLMDRIKKQLREWDENLKDDSLPSNPIDFSYRVAACLPIDDVLRIQLLKIGSAIQRLRCELDIMNKCTSLCCKQCQETEITTKNEIFSLSLCGPMAAYVNPHGYVHETLTVYKACNLNLIGRPSTEHSWFPGYAWTVAQCKICASHIGWKFTATKKDMSPQKFWGLTRSALLPTIPDTEDEISPDKVILCL
B2: HaloTag-CRBN (human, wild type) [human] / hCRBN-NanoLuc with a 191-248 aa deletion (Trunc) [human] (parent)
chain 1: MAGEGDQQDAAHNMGNHLPLLPAESEEEDEMEVEDQDSKEAKKPNIINFDTSLPTSHTYLGADMEEFHGRTLHDDDSCQVIPVLPQVMMILIPGQTLPLQLFHPQEVSMVRNLIQKDRTFAVLAYSNVQEREAQFGTTAEIYAYREEQDFGIEIVKVKAIGRQRFKVLELRTQSDGIQQAKVQILPECVLPSTMSAVQLESLNKCQIFPSKPVSREDQCSYKWWQKYQKRKFHCANLTSWPRWLYSLYDAETLMDRIKKQLREWDENLKDDSLPSNPIDFSYRVAACLPIDDVLRIQLLKIGSAIQRLRCELDIMNKCTSLCCKQCQETEITTKNEIFSLSLCGPMAAYVNPHGYVHETLTVYKACNLNLIGRPSTEHSWFPGYAWTVAQCKICASHIGWKFTATKKDMSPQKFWGLTRSALLPTIPDTEDEISPDKVILCL
chain 2: B1 chain 2

The variants in the first experiment derive from B1. Kind of experiment: NanoBRET. Conditions: with hCRBN-NanoLuc with a 191-248 aa deletion (Trunc) [human]; MRT-31619 at log10 concentration = 4 (highest dose; concentration unit inferred); six biological replicates, mean ± SD; read off a plot.
For the variant chain 1 S105F, the response is 1.9 mBU.
The same measure, in the same setting: to chain 1 V380E I391V belongs 2.7 mBU.

A further experiment covers variants of B2. Kind of experiment: NanoBRET. Conditions: with hCRBN-NanoLuc with a 191-248 aa deletion (Trunc) [human]; MRT-31619 at log10 concentration = 4 (highest dose; concentration unit inferred); three biological replicates, mean ± SEM; read off a plot. (In general: In BRET a luciferase serves as donor, and the signal depends on an acceptor being close.)
Consider chain 1 F150A R373A, for which the response stood at 2.9 mBU.
On the same count and under the same terms, to chain 1 R373A belongs 2.6 mBU.
On the same count and under the same terms, to chain 1 E377A belongs 3.3 mBU; to chain 1 F150A, 3.7 mBU.
